This experiment deals with T1, soluble extracellular domain (ECD) of the human insulin receptor (human, UniProt P06213 28-956, limits assumed).
T1 construct: extracellular domain; also called HIR ECD; extracellular domain of the HIR
As to the kind of experiment: immunoradiometric assay (IRMA) on HIR ECD with [125I]-murine 83-14 MAb as ligand. An excerpt: In the IRMA, the antigen was the extracellular domain of the HIR, which was produced from transfected CHO cells and purified by lectin affinity chromatography of CHO cell conditioned medium.

Substitutions are numbered along the chain they refer to.

For orientation: Kd means the equilibrium constant for the complex coming apart.

B1: murine 83-14 HIRMAb (antibody, V domains shown)
VH: QVQLQESGPELVKPGALVKISCKASGYTFTNYDIHWVKQRPGQGLEWIGWIYPGDGSTKYNEKFKGKATLTADKSSSTAYMHLSSLTSEKSAVYFCAREWAYWGQGTLVTVSA
VL: DIQMTQSPSSLSASLGERVSLTCRASQDIGGNLYWLQQGPDGTIKRLIYATSSLDSGVPKRFSGSRSGSDYSLTISSLESEDFVDYYCLQYSSSPWTFGGGTKMEIKR
notes: Intact murine IgG from the 83-14 hybridoma; the murine constant regions and isotype are not; also called HIRMAb 83-14; MAb 83-14
On to B1, for which the Kd was 2.7 nM. In other words, the single-digit nanomolar range.

B2: Version 5 humanized HIRMAb (antibody, human IgG1, V domains shown)
VH: B1 VH with Q5L, P9A, K13R, A16S, L17S, L108T
VL: DIQMTQSPSSLSASVGERVTITCRASQDIGGNLYWYQQKPGKAPKLLIYATSSLDSGVPSRFSGSGSGTDYTFTISSLQPEDIATYYCLQYSSSPWTFGQGTKVEIKR
notes: also called version 5 HIRMAb; Version 5 humanized 83-14 HIRMAb
Take B2: the Kd was found to be 3.7 nM.

The values above are taken from patent US20050142141A1 (University of California, published 2005).
